The target in experiment [1] is YFP-Harmonin-a PDZ3c (human) (UniProt Q9Y6N9). The experiment is described as follows: MST; YFP-fused partner constant at 100 nM, non-fluorescent protein titrated (16 two-fold dilutions); 20 mM Hepes pH 7.0, 100 mM NaCl, 1 mM EGTA, 0.5 mM TCEP, 0.05% Tween 20; Monolith NT.115.
Experiment [2] concerns the target YFP-SANS_(CEN-PBM) (UniProt Q495M9). The description is as above.
In experiment [3] the target is YFP-ANKS4B_(CEN-PBM) (human) (UniProt Q8N8V4). Described as above.
The target in experiment [4] is T1, Myosin 7b MF1.SH3 (human, UniProt Q6PIF6 958-1586).
T1 construct: also called M7b MF1.SH3; Myo7b MF1.SH3; source: E. coli (BL21-AI, BL21 (DE3) Rosetta or BL21-Gold (DE3)), purified (Histrap, CaptoQ, gel filtration)
T1 sequence: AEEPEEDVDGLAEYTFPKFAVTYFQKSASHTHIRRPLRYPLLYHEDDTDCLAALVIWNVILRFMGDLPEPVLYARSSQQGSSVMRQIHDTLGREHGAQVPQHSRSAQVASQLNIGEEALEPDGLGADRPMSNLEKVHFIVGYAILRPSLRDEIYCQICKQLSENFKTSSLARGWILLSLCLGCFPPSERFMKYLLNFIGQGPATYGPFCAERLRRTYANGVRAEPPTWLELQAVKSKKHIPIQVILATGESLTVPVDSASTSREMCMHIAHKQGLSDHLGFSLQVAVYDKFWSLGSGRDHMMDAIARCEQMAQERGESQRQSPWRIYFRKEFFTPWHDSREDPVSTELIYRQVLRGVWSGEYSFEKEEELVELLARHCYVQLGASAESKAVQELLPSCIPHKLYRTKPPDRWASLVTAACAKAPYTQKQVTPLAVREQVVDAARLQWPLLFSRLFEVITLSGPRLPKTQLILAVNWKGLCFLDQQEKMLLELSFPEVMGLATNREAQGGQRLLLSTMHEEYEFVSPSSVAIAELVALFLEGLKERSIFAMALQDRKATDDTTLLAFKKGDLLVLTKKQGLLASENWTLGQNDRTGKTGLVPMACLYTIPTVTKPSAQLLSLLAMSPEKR
Described as above. Particulars: both partners purified.

For experiment [5], the target named is T2, Myosin 7a MF1.SH3 (human, UniProt Q13402-1 991-1692, residues 1523-1560 were deleted from MF1).
T2 construct: Myosin 7a, human, N-terminal MyTH4-FERM domain and SH3, residues 991-1692 of UniProt Q13402-1; residues 1523-1560 deleted; Thrombin site of the vector replaced by an SSG linker; also called M7a MF1.SH3; Myo7a MF1.SH3; source: E. coli (BL21-AI, BL21 (DE3) Rosetta or BL21-Gold (DE3)), purified (Histrap, CaptoQ, gel filtration)
T2 sequence (looked up): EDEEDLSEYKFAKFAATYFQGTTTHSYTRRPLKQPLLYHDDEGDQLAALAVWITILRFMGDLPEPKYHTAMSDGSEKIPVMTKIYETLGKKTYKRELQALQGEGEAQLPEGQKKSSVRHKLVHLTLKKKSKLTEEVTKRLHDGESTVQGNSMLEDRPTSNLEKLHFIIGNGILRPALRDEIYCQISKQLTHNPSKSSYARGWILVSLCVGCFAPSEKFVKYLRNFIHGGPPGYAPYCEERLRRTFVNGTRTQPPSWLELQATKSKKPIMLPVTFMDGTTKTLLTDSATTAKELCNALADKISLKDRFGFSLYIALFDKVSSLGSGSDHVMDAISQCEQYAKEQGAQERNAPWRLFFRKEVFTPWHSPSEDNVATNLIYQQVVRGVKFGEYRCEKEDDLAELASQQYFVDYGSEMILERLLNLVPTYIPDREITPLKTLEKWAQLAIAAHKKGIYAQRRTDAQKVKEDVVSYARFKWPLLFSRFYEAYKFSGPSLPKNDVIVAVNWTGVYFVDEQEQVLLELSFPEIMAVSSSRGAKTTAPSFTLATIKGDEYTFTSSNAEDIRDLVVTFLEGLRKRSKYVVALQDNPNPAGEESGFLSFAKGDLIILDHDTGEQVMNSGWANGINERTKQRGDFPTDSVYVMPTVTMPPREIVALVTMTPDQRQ
The description is as above. Particulars: both partners purified.

Experiment [6] concerns the target T3, Harmonin NPDZ1.PDZ2 (human, UniProt Q9Y6N9-1 1-301).
T3 construct: Harmonin-a1 (USH1C), human, N-terminal domain, PDZ1 and PDZ2, residues 1-301 of UniProt Q9Y6N9-1; source: E. coli BL21 (DE3) Rosetta, purified (Glutathione Sepharose 4B, size-exclusion chromatography)
T3 sequence (looked up): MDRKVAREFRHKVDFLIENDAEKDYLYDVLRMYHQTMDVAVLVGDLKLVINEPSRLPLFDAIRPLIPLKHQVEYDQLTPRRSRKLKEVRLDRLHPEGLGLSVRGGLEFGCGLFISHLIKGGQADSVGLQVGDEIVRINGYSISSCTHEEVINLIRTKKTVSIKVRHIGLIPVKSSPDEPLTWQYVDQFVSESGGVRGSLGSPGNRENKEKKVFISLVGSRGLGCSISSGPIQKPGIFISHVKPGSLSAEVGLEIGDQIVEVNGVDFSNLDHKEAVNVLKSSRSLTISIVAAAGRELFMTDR
Described as above. Particulars: both partners purified.

Experiment [7] addresses T4, Myosin 7b MF1.SH3 A1128E (human, UniProt Q6PIF6 958-1586, A1128E).
T4 construct: Myosin 7b, human, MF1.SH3, residues 958-1586 of UniProt Q6PIF6; also called M7b MF1.SH3 A1128E; source: E. coli, purified similarly as wild type (Histrap, CaptoQ, gel filtration)
T4 sequence: T1 sequence with A171E
Described as above. Particulars: both partners purified.

The target in experiment [8] is T5, Full length (FL)-harmonin (harmonin-a1) (human, UniProt Q9Y6N9-1 1-552).
T5 construct: Harmonin-a1 (USH1C), human, residues 1-552 of UniProt Q9Y6N9-1; also called FL-harmonin-a; source: E. coli BL21 (DE3) Rosetta, purified (Glutathione Sepharose 4B, size-exclusion chromatography)
T5 sequence (looked up): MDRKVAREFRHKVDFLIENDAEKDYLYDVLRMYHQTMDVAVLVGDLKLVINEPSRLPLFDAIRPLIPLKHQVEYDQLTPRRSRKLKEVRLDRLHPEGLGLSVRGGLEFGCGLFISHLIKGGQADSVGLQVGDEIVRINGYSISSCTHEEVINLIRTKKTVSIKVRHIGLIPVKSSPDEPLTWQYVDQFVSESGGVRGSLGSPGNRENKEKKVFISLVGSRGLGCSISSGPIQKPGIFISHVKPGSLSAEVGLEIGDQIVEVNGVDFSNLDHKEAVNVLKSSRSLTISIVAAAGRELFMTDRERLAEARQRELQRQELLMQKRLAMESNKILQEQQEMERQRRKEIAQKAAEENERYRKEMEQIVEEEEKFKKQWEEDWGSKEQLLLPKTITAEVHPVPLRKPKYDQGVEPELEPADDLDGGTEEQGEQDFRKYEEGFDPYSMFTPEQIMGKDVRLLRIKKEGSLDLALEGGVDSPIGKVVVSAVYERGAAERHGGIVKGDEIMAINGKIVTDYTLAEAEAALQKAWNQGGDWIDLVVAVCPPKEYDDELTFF
Nature of the experiment: MST; as a1 but 150 mM NaCl (for FL-Harmonin-a); YFP-fused partner constant at 100 nM, non-fluorescent protein titrated. Particulars: both partners purified.

Residue numbers refer to the chain shown, from its start. Some results are limits rather than exact numbers.

Molecule “Myosin 7b MF2 R1921E-F1923V (from UniProt Q6PIF6 1605-2116) (domain or fragment)” returned a dissociation constant Kd in experiment [1] of over 100 µM.
Regarding “Myosin 7b MF1.SH3 K1194E-K1195E R1171E-R1172E (from UniProt Q6PIF6 958-1586) (domain or fragment)”, the Kd in experiment [2] worked out at 6.6 µM; in experiment [3], 3.1 µM.

B1: YFP-ANKS4B_(CEN-PBM) (domain or fragment, human, UniProt Q8N8V4 259-417, looked up)
chain: SVHHESILNRPGLGSIVFRRNRISSPEDISDSKREFGFKLPSELLQRQGASEADEGAADEEGEENGLKDDLPWDDDEVEWEEDVVDATPLEVFLLSQHLEEFLPIFKREQIDLEALLLCSDEDLQSIQMQLGPRKKVLNAINRRKQVLQQPGQLVDTSL
notes: ANKS4B, human, CEN regions, SAM domain and PBM, residues 259-417 of UniProt Q8N8V4; source: E. coli (BL21-AI, BL21 (DE3) Rosetta or BL21-Gold (DE3)), purified (Histrap, CaptoQ, gel filtration); not shown: YFP, N-terminal, kept
Regarding B1, the Kd in experiment [4] worked out at 4.3 ± 0.8 µM; in experiment [5], 4900 ± 700 nM; in experiment [6], 9 nM; in experiment [7], 13.1 ± 0.7 µM.

B2: YFP-SANS_(CEN-PBM) (domain or fragment, UniProt Q495M9 300-461, looked up)
chain: DSGHDSLFTRPGLGTMVFRRNYLSSGLHGLGREDGGLDGVGAPRGRLQSSPSLDDDSLGSANSLQDRSCGEELPWDELDLGLDEDLEPETSPLETFLASLHMEDFAALLRQEKIDLEALMLCSDLDLRSISVPLGPRKKILGAVRRRRQAMERPPALEDTEL
notes: The full-length SANS gene was synthesised; source: E. coli (BL21-AI, BL21 (DE3) Rosetta or BL21-Gold (DE3)), purified (Histrap, CaptoQ, gel filtration); not shown: YFP, N-terminal, kept
For B2, the Kd in experiment [4] was determined as 5.4 ± 1.6 µM; in experiment [5], 130 ± 20 nM; in experiment [6] it was 17 nM; in experiment [7], 18.2 ± 2.8 µM.

B3: YFP-FL-harmonin-ΔCter (domain or fragment, human, UniProt Q9Y6N9-1 1-542, looked up)
chain: MDRKVAREFRHKVDFLIENDAEKDYLYDVLRMYHQTMDVAVLVGDLKLVINEPSRLPLFDAIRPLIPLKHQVEYDQLTPRRSRKLKEVRLDRLHPEGLGLSVRGGLEFGCGLFISHLIKGGQADSVGLQVGDEIVRINGYSISSCTHEEVINLIRTKKTVSIKVRHIGLIPVKSSPDEPLTWQYVDQFVSESGGVRGSLGSPGNRENKEKKVFISLVGSRGLGCSISSGPIQKPGIFISHVKPGSLSAEVGLEIGDQIVEVNGVDFSNLDHKEAVNVLKSSRSLTISIVAAAGRELFMTDRERLAEARQRELQRQELLMQKRLAMESNKILQEQQEMERQRRKEIAQKAAEENERYRKEMEQIVEEEEKFKKQWEEDWGSKEQLLLPKTITAEVHPVPLRKPKYDQGVEPELEPADDLDGGTEEQGEQDFRKYEEGFDPYSMFTPEQIMGKDVRLLRIKKEGSLDLALEGGVDSPIGKVVVSAVYERGAAERHGGIVKGDEIMAINGKIVTDYTLAEAEAALQKAWNQGGDWIDLVVAVCPP
notes: Harmonin-a1 (USH1C), human, residues 1-542 of UniProt Q9Y6N9-1; also called ^YFPFL ΔCter; source: E. coli BL21 (DE3) Rosetta, purified (Glutathione Sepharose 4B, size-exclusion chromatography)
B3 returned a dissociation constant (Kd) in experiment [8] of 2500 nM.

The values above are taken from article PMC5493754, “Myosin 7 and its adaptors link cadherins to actin” (Nature Communications, 2017).
